Our source for the Kd values is PMC9352680, “A comprehensive thermodynamic model for RNA binding by the Saccharomyces cerevisiae Pumilio protein PUF4”.

Substitutions are numbered along the chain they refer to. Numbers in names are those of the source.

The target of this data set is T1, PUF4 RNA-binding domain (Saccharomyces cerevisiae, UniProt P25339 537-888).
T1 sequence: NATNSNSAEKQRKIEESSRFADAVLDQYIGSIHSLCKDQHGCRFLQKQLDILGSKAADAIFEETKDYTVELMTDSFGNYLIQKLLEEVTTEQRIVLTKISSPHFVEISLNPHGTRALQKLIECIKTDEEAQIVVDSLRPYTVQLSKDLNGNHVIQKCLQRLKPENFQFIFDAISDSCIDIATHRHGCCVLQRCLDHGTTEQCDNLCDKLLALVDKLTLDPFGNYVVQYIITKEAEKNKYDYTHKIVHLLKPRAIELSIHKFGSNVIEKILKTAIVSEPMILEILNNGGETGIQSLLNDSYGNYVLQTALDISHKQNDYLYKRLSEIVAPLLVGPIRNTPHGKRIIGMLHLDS
The data set can be described thus: Mg; RNA-MaP; 20 mM Na-HEPES pH 7.4, 30 mM KOAc, 0.75 mM MgCl2, 0.1% Tween-20, 5% glycerol, 0.1 mg/mL BSA, 2 mM DTT; 25 C; 0.0125-409.6 nM protein. Particulars: tags: N-His6-TEV cleaved; C-SNAP kept, Cy3B-labelled; label: tethered on chip by stalled RNA polymerase.

In the case of ACAAACUGUAUUAUUUUCAACAAAC (ssRNA) [Ie_S3_P5E.1_K5.1_C5.1_H5.1_A5.1_F5.1_[+9TTC]_T5.1], binding was characterised by a dissociation constant (Kd) of 19.8 nM.

B1: Ie_S4_P3E.2_K3.1_C3.2_[+-2CCCTT]_H3.1_A3.1_F3.1_T3.2 (ssRNA)
RNA: UUUGACAACUGAUCGUUCUUUCUCCCCUUUUGUAUAUAUAUUCUUUCUCGAUCAGUUGUCUUU
Regarding B1, binding was characterised by a dissociation constant (Kd) of 0.884 nM.

B2: Ie_S4_P3E.2_K3.1_C3.2_H3.1_[+1CCTCT]_A3.1_F3.1_T3.2 (ssRNA)
RNA: B1 RNA with C25U, C26U, U28C, U30C
In the case of B2, the dissociation constant (Kd) (usually the concentration at which binding is half-saturated) stood at 0.898 nM. The Kd values of the last two molecules are within 1.5-fold of each other.

B3: Ie_S4_P3E.2_K3.1_C3.2_H3.1_[+3TTCCT]_A3.1_F3.1_T3.2 (ssRNA)
RNA: B1 RNA with C25U, C26U, C27G, U31C, G32C
Molecule B3 showed a Kd of 19.9 nM.

B4: Ie_S4_P3E.2_K3.1_C3.2_H3.1_[+2TCTCT]_A3.1_F3.1_T3.2 (ssRNA)
RNA: B1 RNA with C25U, C26U, C27G, U29C, U31C, G32U
B4 displayed a Kd of 23.6 nM.

B5: Ie_S4_P3E.2_K3.1_C3.2_H3.1_[+1TTCCT]_A3.1_F3.1_T3.2 (ssRNA)
RNA: B1 RNA with C25U, C26U, C27U, U29C, U30C
The molecule B5 yielded a dissociation constant Kd of 1.16 nM. This Kd is about 20-fold lower than that of the molecule before.

B6: Ie_S4_P3E.2_K3.1_C3.2_H3.1_[+3CCTCT]_A3.1_F3.1_T3.2 (ssRNA)
RNA: B1 RNA with C25U, C26U, C27G, U29C, U30C, G32C
B6 showed a dissociation constant (Kd) of 21.3 nM.

B7: Ie_S4_P3E.2_K3.1_C3.2_H3.1_[+3TCTCT]_A3.1_F3.1_T3.2 (ssRNA)
RNA: B1 RNA with C25U, C26U, C27G, U30C, G32C
In turn, B7 returned a Kd of 11.8 nM.

B8: Ie_S4_P3E.2_K3.1_C3.2_[+-1CTCTC]_H3.1_A3.1_F3.1_T3.2 (ssRNA)
RNA: B1 RNA with C25U, C27U, U28C, U30C
As for B8, the Kd is 0.676 nM. This Kd is about 17-fold lower than that of the molecule before.

For ACAAACUGUAUUAUUUCUCAACAAAC (ssRNA) [Ie_S3_P5E.1_K5.1_C5.1_H5.1_A5.1_F5.1_[+9TCTC]_T5.1], the Kd turned out to be 19.4 nM.

B9: Ie_S4_P3E.2_K3.1_C3.2_[+-2T]_H3.1_A3.1_F3.1_T3.2 (ssRNA)
RNA: UUUGACAACUGAUCGUUCUUUCUCUUUGUAUAUAUAUUCUUUCUCGAUCAGUUGUCUUU
As to B9, the Kd was 0.987 nM.

B10: Ie_S4_P3E.2_K3.1_C3.2_[+-1C]_H3.1_A3.1_F3.1_T3.2 (ssRNA)
RNA: B9 RNA with U26C
Molecule B10 showed a Kd of 1.07 nM.

B11: Ie_S4_P3E.2_K3.1_C3.2_H3.1_[+3C]_A3.1_F3.1_T3.2 (ssRNA)
RNA: B9 RNA with U27G, G28U, U29C
Regarding B11, the Kd is 6.8 nM.

B12: Ie_S4_P3E.2_K3.1_C3.2_[+-2TTCC]_H3.1_A3.1_F3.1_T3.2 (ssRNA)
RNA: UUUGACAACUGAUCGUUCUUUCUCUUCCUUGUAUAUAUAUUCUUUCUCGAUCAGUUGUCUUU
As for B12, binding was characterised by a dissociation constant (Kd) of 1.01 nM.

B13: Ie_S4_P3E.2_K3.1_C3.2_H3.1_[+3TTCC]_A3.1_F3.1_T3.2 (ssRNA)
RNA: B12 RNA with C27G, C28U, G31C, U32C
B13 had a Kd of 23.4 nM.

B14: Ie_S4_P3E.2_K3.1_C3.2_[+-1CCCT]_H3.1_A3.1_F3.1_T3.2 (ssRNA)
RNA: B12 RNA with U26C
As to B14, binding was characterised by a dissociation constant (Kd) of 0.775 nM.

B15: Ie_S4_P3E.2_K3.1_C3.2_[+-1CCTC]_H3.1_A3.1_F3.1_T3.2 (ssRNA)
RNA: B12 RNA with U26C, C28U, U29C
In the case of B15, the Kd came out at 1.06 nM.

B16: Ie_S4_P3E.2_K3.1_C3.2_H3.1_[+3CCCT]_A3.1_F3.1_T3.2 (ssRNA)
RNA: B12 RNA with C27G, C28U, U29C, U30C, G31C
For B16, binding was characterised by a dissociation constant (Kd) of 32.7 nM.

B17: Ie_S4_P3E.2_K3.1_C3.2_H3.1_[+1TTCC]_A3.1_F3.1_T3.2 (ssRNA)
RNA: B12 RNA with C27U, C28U, U29C, U30C
Regarding B17, the Kd amounted to 45.7 nM.

B18: Ie_S4_P3E.2_K3.1_C3.2_H3.1_[+1CCTC]_A3.1_F3.1_T3.2 (ssRNA)
RNA: B12 RNA with U30C
Consider B18, for which binding was characterised by a dissociation constant (Kd) of 64 nM.

In turn, ACAAACUGUAUUAUUCCUAACAAAC (ssRNA) [Ie_S3_P5E.1_K5.1_C5.1_H5.1_A5.1_F5.1_[+9CCT]_T5.1] gave a Kd of 19.9 nM.

B19: Ib_S2_P3E.1_K3.1_C3.1_H3.1_[T1C]_A3.1_[A6G]_F3.1_T3.1 (ssRNA)
RNA: UUUGAUUAAUAUGAUAUCGUUCUUUCUCGUAUGUAUUCUUUCUCGAUAUCAUAUUAAUCUUU
Consider B19, for which binding was put at a Kd of 75.7 nM.

B20: Ic_S2_P3E.1_K3.1_C3.1_H3.1_A3.1_[T5A]_F3.1_T3.1 (ssRNA)
RNA: B19 RNA with C28U, U32A, G33A
On to B20, for which the Kd was determined as 14.9 nM.

B21: Ib_S2_P3E.1_K3.1_C3.1_H3.1_[T1A]_A3.1_[A6G]_F3.1_T3.1 (ssRNA)
RNA: B19 RNA with C28A
As for B21, the Kd came out at 257 nM.

B22: Ib_S2_P3E.1_K3.1_C3.1_H3.1_[G2C]_A3.1_[T5C]_F3.1_T3.1 (ssRNA)
RNA: B19 RNA with C28U, G29C, U32C, G33A
For the molecule B22, the Kd was over 2300 nM.

B23: Ib_S2_P3E.1_K3.1_C3.1_H3.1_[G2A]_A3.1_[T5C]_F3.1_T3.1 (ssRNA)
RNA: B19 RNA with C28U, G29A, U32C, G33A
B23 returned a Kd of 467 nM.

For ACAAACUGUAUUAUUCCUCUAACAAAC (ssRNA) [Ie_S3_P5E.1_K5.1_C5.1_H5.1_A5.1_F5.1_[+9CCTCT]_T5.1], binding was characterised by a dissociation constant (Kd) of 20.7 nM.

ACAAACUGUAUUAUUAUCCACAAAC (ssRNA) [Ie_S3_P5E.1_K5.1_C5.1_H5.1_A5.1_F5.1_[+10TCC]_T5.1] returned a Kd of 5.94 nM.

B24: Ie_S4_P3E.2_K3.1_C3.2_[+-1CT]_H3.1_A3.1_F3.1_T3.2 (ssRNA)
RNA: UUUGACAACUGAUCGUUCUUUCUCUCUUGUAUAUAUAUUCUUUCUCGAUCAGUUGUCUUU
B24: the Kd was determined as 0.942 nM.

B25: Ie_S4_P3E.2_K3.1_C3.2_H3.1_[+1TC]_A3.1_F3.1_T3.2 (ssRNA)
RNA: B24 RNA with C26U, U28C
Molecule B25 came in with a Kd of 50.6 nM.

B26: Ie_S4_P3E.2_K3.1_C3.2_H3.1_[+2CT]_A3.1_F3.1_T3.2 (ssRNA)
RNA: B24 RNA with C26U, U27G, U28C, G29U
In the case of B26, the Kd is 60.8 nM. This Kd and that of the molecule before are within 1.5-fold of each other.

B27: Ie_S4_P3E.2_K3.1_C3.2_[+-1TC]_H3.1_A3.1_F3.1_T3.2 (ssRNA)
RNA: B24 RNA with C26U, U27C
As to B27, the Kd was found to be 0.769 nM. Against the preceding molecule, the Kd is about 79-fold lower.

B28: Ie_S4_P3E.2_K3.1_C3.2_[+-1TT]_H3.1_A3.1_F3.1_T3.2 (ssRNA)
RNA: B24 RNA with C26U
Molecule B28 registered a Kd of 1.2 nM.

B29: Ie_S4_P3E.2_K3.1_C3.2_[+-2CCC]_H3.1_A3.1_F3.1_T3.2 (ssRNA)
RNA: UUUGACAACUGAUCGUUCUUUCUCCCCUUGUAUAUAUAUUCUUUCUCGAUCAGUUGUCUUU
The molecule B29 gave a Kd of 0.858 nM.

B30: Ie_S4_P3E.2_K3.1_C3.2_H3.1_[+2TTT]_A3.1_F3.1_T3.2 (ssRNA)
RNA: B29 RNA with C25U, C26U, C27G, G30U
Molecule B30 had a Kd of 16.5 nM.

B31: Ie_S4_P3E.2_K3.1_C3.2_[+-1CTT]_H3.1_A3.1_F3.1_T3.2 (ssRNA)
RNA: B29 RNA with C25U, C27U
Molecule B31 yielded a Kd of 1.24 nM.

B32: Ie_S4_P3E.2_K3.1_C3.2_H3.1_[+2CCT]_A3.1_F3.1_T3.2 (ssRNA)
RNA: B29 RNA with C25U, C26U, C27G, U28C, U29C, G30U
For B32, the equilibrium dissociation constant (Kd) was 41.1 nM.

B33: Ie_S4_P3E.2_K3.1_C3.2_H3.1_[+1CCT]_A3.1_F3.1_T3.2 (ssRNA)
RNA: B29 RNA with C25U, C26U, U28C
With B33, the affinity, expressed as Kd, was 1.07 nM.

B34: Ie_S4_P3E.2_K3.1_C3.2_[+-1CCC]_H3.1_A3.1_F3.1_T3.2 (ssRNA)
RNA: B29 RNA with C25U, U28C
B34 displayed a Kd of 0.986 nM.

B35: Ie_S4_P3E.2_K3.1_C3.2_H3.1_[+2TCC]_A3.1_F3.1_T3.2 (ssRNA)
RNA: B29 RNA with C25U, C26U, C27G, U29C, G30C
With B35, the affinity, expressed as Kd, was 10.8 nM.

B36: Ie_S4_P3E.2_K3.1_C3.2_H3.1_[+3CCC]_A3.1_F3.1_T3.2 (ssRNA)
RNA: B29 RNA with C25U, C26U, C27G, U29C, G30C, U31C
The molecule B36 showed a Kd of 13.7 nM.

B37: Ie_S4_P3E.2_K3.1_C3.2_H3.1_[+3CTT]_A3.1_F3.1_T3.2 (ssRNA)
RNA: B29 RNA with C25U, C26U, C27G, U29C, G30U
B37 came in with a Kd of 11.4 nM. This Kd and that of the molecule before are within 1.5-fold of each other.

B38: Ie_S4_P3E.2_K3.1_C3.2_H3.1_[+1CTT]_A3.1_F3.1_T3.2 (ssRNA)
RNA: B29 RNA with C25U, C26U
In turn, B38 registered a Kd of 0.982 nM. Against the preceding molecule, the Kd is about 12-fold lower.

B39: Ie_S4_P3E.2_K3.1_C3.2_[+-1TTT]_H3.1_A3.1_F3.1_T3.2 (ssRNA)
RNA: B29 RNA with C25U, C26U, C27U
Molecule B39 returned a Kd of 1.03 nM.

B40: Ie_S4_P3E.2_K3.1_C3.2_H3.1_[+1TCC]_A3.1_F3.1_T3.2 (ssRNA)
RNA: B29 RNA with C25U, C26U, C27U, U28C, U29C
Take B40: the affinity, expressed as Kd, was 25.7 nM.

B41: Ie_S4_P3E.2_K3.1_C3.2_[+-1CCT]_H3.1_A3.1_F3.1_T3.2 (ssRNA)
RNA: B29 RNA with C25U
B41 showed a Kd of 0.625 nM. Against the preceding molecule, the Kd is about 41-fold lower.

Regarding ACAAACUGUAUUAUUCUCAACAAAC (ssRNA) [Ie_S3_P5E.1_K5.1_C5.1_H5.1_A5.1_F5.1_[+9CTC]_T5.1], the Kd came to 23 nM.
